The text below walks through data of US20070042353.

Series [1] has as its target HCV NS5B531 (Hepatitis C virus (BK strain, genotype 1b)) (UniProt P26663). The note with it: [3H]UTP incorporation, 5 mM MgCl2, 50 mM NaCl, pH 7.5, 25 C, 90 min.
Series [2] deals with HCV NS5B536 (Hepatitis C virus (BK strain, genotype 1b)) (UniProt P26663). To be noted: [3H]UTP incorporation, 5 mM MgCl2, 50 mM NaCl, pH 7.5, 25 C, 90 min.
The target of series [3] is HCV NS5B544 (Hepatitis C virus (BK strain, genotype 1b)) (UniProt P26663). To be noted: [3H]UTP incorporation, 5 mM MgCl2, 50 mM NaCl, pH 7.5, 25 C, 90 min.
In series [4] the target is HCV NS5B552 (Hepatitis C virus (BK strain, genotype 1b)) (UniProt P26663). To be noted: [3H]UTP incorporation, 5 mM MgCl2, 50 mM NaCl, pH 7.5, 25 C, 90 min.
The target of series [5] is HCV NS5B570 (Hepatitis C virus (BK strain, genotype 1b)) (UniProt P26663). The note with it: [3H]UTP incorporation, 5 mM MgCl2, 50 mM NaCl, pH 7.5, 25 C, 90 min.
In series [6] the target is HCV NS5B591 (full length) (Hepatitis C virus (BK strain, genotype 1b)) (UniProt P26663). The note with it: reference enzyme; [3H]UTP incorporation, 5 mM MgCl2, 50 mM NaCl, pH 7.5, 25 C, 90 min.

As to “HCV NS5B 3' end + 3'UTR (polyU and 3'X) template RNA, about 450 nt”, the activity was 2150 % of NS5B591 in series [1]; 2110 % of NS5B591 in series [2]; 2010 % of NS5B591 in series [3]; 147 % of NS5B591 in series [4]; 3 % of NS5B591 in series [5]; 100 % of NS5B591 in series [6].
